These results are taken from patent US20250076311A1 (Chugai, published 2025).

Changes are numbered by the printed parent chain.

The chains are these.
T1: cynomolgus monkey FcγRIIa1 extracellular domain with C-terminal His-tag (cynomolgus monkey)
T1 construct: also called cyno FcγRIIa1; FcgRIIa1
T1 chain: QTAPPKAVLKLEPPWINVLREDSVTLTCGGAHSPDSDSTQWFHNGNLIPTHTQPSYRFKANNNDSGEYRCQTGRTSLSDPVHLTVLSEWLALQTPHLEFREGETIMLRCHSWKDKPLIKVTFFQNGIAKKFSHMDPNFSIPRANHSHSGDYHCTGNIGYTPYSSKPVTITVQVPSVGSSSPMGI

T2: cynomolgus monkey FcγRIIa2 extracellular domain with C-terminal His-tag (cynomolgus monkey)
T2 construct: also called cyno FcγRIIa2; FcgRIIa2
T2 chain: T1 chain with P95T, T121A, I127K, A128S, K130N, D135N, R142Q

T3: cynomolgus monkey FcγRIIa3 extracellular domain with C-terminal His-tag (cynomolgus monkey)
T3 construct: also called cyno FcγRIIa3; FcgRIIa3
T3 chain: T1 chain with P95T, T121A, A128S, H133P, D135N

T4: cynomolgus monkey FcγRIIb extracellular domain with C-terminal His-tag (cynomolgus monkey)
T4 construct: also called cyno FcγRIIb; cynoFcγRIIb
T4 chain: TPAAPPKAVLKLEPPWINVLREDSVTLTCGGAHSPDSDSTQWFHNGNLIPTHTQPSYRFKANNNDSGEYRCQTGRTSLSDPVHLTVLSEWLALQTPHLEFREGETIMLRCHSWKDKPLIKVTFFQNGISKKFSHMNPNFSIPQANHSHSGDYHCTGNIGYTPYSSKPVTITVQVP

T5: cynomolgus monkey FcγRIIIaS extracellular domain with C-terminal His-tag (cynomolgus monkey, UniProt Q8SPW2 21-206 at identity 1.00))
T5 construct: also called cyno FcγRIIIaS; FcgRIIIaS
T5 chain: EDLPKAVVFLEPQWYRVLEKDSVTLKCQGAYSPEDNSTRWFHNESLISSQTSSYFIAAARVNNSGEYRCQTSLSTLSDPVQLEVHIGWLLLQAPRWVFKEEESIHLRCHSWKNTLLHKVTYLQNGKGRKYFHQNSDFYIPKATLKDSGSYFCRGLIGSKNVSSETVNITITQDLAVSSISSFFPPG

T6: human FcγRIIaH extracellular domain with C-terminal His-tag (human, UniProt P12318 34-217)
T6 construct: also called human FcγRIIa (type H); FcgRIIaH
T6 sequence: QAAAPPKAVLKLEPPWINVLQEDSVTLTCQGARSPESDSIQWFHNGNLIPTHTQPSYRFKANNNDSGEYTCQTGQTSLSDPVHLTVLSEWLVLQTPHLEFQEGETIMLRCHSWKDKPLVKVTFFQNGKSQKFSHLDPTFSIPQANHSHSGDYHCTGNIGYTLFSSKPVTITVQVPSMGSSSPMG

T7: human FcγRIIaR extracellular domain with C-terminal His-tag (human, UniProt P12318 34-217)
T7 construct: also called human FcγRIIa (type R); FcgRIIaR
T7 chain: T6 sequence with H134R

T8: human FcγRIIb extracellular domain with C-terminal His-tag (human, UniProt P31994 43-217)
T8 construct: also called human FcgRIIb; FcgRIIb
T8 sequence: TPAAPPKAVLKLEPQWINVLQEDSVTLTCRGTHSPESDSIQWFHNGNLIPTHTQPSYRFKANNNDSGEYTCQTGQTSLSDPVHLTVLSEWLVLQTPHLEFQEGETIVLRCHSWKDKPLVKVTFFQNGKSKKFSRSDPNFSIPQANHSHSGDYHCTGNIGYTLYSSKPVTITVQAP

T9: cynomolgus monkey FcγRIIa1 extracellular domain with C-terminal His-tag (cynomolgus monkey)
T9 construct: also called cyno FcgRIIa1; cynoFcγRIIa1
T9 chain: T1 chain

B1: M103205H795-MY219 (heavy chain) with M103202L889-SK1 (light chain) (antibody, human IgG1, kappa, name in EU numbering)
heavy: QVTLKESGPVLVKPTETLTLTCTVSGIDLSHDDISWVRQAPGKGLEWVGIISYAGSTYYASWAKGRLTISKDTSKNQVVLTMTNMDPVDTATYYCARGVPAYSHGGDLWGQGTLVTVSSASTKGPSVFPLAPSSKSTSGGTAALGCLVKDYFPEPVTVSWNSGALTSGVHTFPAVLQSSGLYSLSSVVTVPSSSLGTQTYICNVNHKPSNTKVDKKVEPKSCDKTHTCPPCPAPELLGYPSVFLFPPKPKDTLMISRTPEVTCVVVDVSDEDPEVKFNWYVDGVEVHNAKTKPREEQYNSTYRVVSVLTVLHQDWLNGKEYKCKVSNKALPKPIEKTISKAKGQPREPQVYTLPPSREEMTKNQVSLTCLVKGFYPSDIAVEWESNGQPENNYKTTPPVLDSDGSFFLYSKLTVDKSRWQQGNVFSCSVMHEALHNHYTQKSLSLSP
light: DIVMTQSPATLSLSPGERATLSCTSSQSVYHANWLSWFQQKPGQPPKLLIYWASTLAYGVPSRFSGSGSGTDFTLTISSLQPEDAATYYCAGGYGGGRYAFGQGTKVEIKRTVAAPSVFIFPPSDEQLKSGTASVVCLLNNFYPREAKVQWKVDNALQSGNSQESVTEQDSKDSTYSLSSTLTLSKADYEKHKVYACEVTHQGLSSPVTKSFNRGEC
notes: Substitutions introduced into M103205H795-SG1; positions in EU numbering
B2: M103205H795-MY285 (heavy chain) with M103202L889-SK1 (light chain) (antibody, human IgG1, kappa, name in EU numbering)
heavy: B1 heavy with G238I, Y239G, Q297L
light: B1 light
notes: as for B1
B3: M103205H795-MY308 (heavy chain) with M103202L889-SK1 (light chain) (antibody, human IgG1, kappa, name in EU numbering)
heavy: B1 heavy with G238T, Y239G, D270E
light: B1 light
notes: as for B1
B4: M103205H795-MY228 (heavy chain) with M103202L889-SK1 (light chain) (antibody, human IgG1, kappa, name in EU numbering)
heavy: B1 heavy with Q297L
light: B1 light
notes: as for B1
B5: M103205H795-MY213 (heavy chain) with M103202L889-SK1 (light chain) (antibody, human IgG1, kappa, name in EU numbering)
heavy: B1 heavy with G238N, Y239G, P398K
light: B1 light
notes: as for B1
B6: M103205H795-MY143 (heavy chain) with M103202L889-SK1 (light chain) (antibody, human IgG1, kappa, name in EU numbering)
heavy: B1 heavy with G238S, Y239G, D270E, K332A, P398M
light: B1 light
notes: as for B1
B7: M103205H795-MY270 (heavy chain) with M103202L889-SK1 (light chain) (antibody, human IgG1, kappa, name in EU numbering)
heavy: B1 heavy with G238H, Y239G, P398K
light: B1 light
notes: as for B1
B8: M103205H795-MY281 (heavy chain) with M103202L889-SK1 (light chain) (antibody, human IgG1, kappa, name in EU numbering)
heavy: B1 heavy with G238Q, Y239G, Q297L
light: B1 light
notes: as for B1
B9: M103205H795-MY269 (heavy chain) with M103202L889-SK1 (light chain) (antibody, human IgG1, kappa, name in EU numbering)
heavy: B1 heavy with G238M, Y239G, P398K
light: B1 light
notes: as for B1
B10: M103205H795-MY272 (heavy chain) with M103202L889-SK1 (light chain) (antibody, human IgG1, kappa, name in EU numbering)
heavy: B1 heavy with G238Q, Y239G, P398K
light: B1 light
notes: as for B1
B11: M103205H795-MY274 (heavy chain) with M103202L889-SK1 (light chain) (antibody, human IgG1, kappa, name in EU numbering)
heavy: B1 heavy with G238T, Y239G, P398K
light: B1 light
notes: as for B1
B12: M103205H795-MY536 / M103202L889-SK1 (antibody, human IgG1, kappa, name in EU numbering)
heavy: B1 heavy with A233G, L236W, G238T, Y239G, S241V
light: B1 light
B13: M103205H795-MY535 / M103202L889-SK1 (antibody, human IgG1, kappa, name in EU numbering)
heavy: B1 heavy with A233G, L236W, G238T, Y239G
light: B1 light
B14: M103205H795-MY392 / M103202L889-SK1 (antibody, human IgG1, kappa, name in EU numbering)
heavy: B1 heavy with G238T, Y239G, S300L
light: B1 light

The target of one test is T1, cynomolgus monkey FcγRIIa1 …. Description: SPR; KD of SG1 / KD of variant.
As for B1, the “KD fold (SG1 = 1)” value turned out to be 0.9 fold.
The same measure, in the same setting: the same measure for B2: 2 fold.

The target of another test is T2, cynomolgus monkey FcγRIIa2 …. Description: SPR; KD of SG1 / KD of variant. Background: In SPR one partner is held on a chip, and binding of the other changes the refractive index at the surface.
With B3, the “KD fold (SG1 = 1)” value was found to be 1.1 fold.
As for B4, the “KD fold (SG1 = 1)” value was found to be 1.6 fold.
On the same count and under the same terms, with B2 the figure was 3 fold; with B5, 9.8 fold.

For the next test, the target named is T3, cynomolgus monkey FcγRIIa3 …. Description: SPR; KD of SG1 / KD of variant.
Consider B3, for which the “KD fold (SG1 = 1)” value amounted to 1.5 fold.
Same read-out and setting: the same measure for B2: 2.5 fold.

A further test has as its target T4, cynomolgus monkey FcγRIIb extracellular …. Description: SPR; KD of SG1 / KD of variant.
Turning to B6, the “KD fold (SG1 = 1)” value is 3.9 fold.
As for B2, the “KD fold (SG1 = 1)” value was 3.1 fold.
The same measure, in the same setting: the same measure for B5: 11.3 fold; for B7: 3.6 fold.

For the next test, the target named is T5, cynomolgus monkey FcγRIIIaS …. Description: SPR; KD of SG1 / KD of variant.
Consider B6, for which the “KD fold (SG1 = 1)” value came out at 1.29 fold.
Same read-out and setting: the same measure for B3: 0.16 fold; for B8: 0.49 fold.
For the molecule B1, the “KD fold (SG1 = 1)” value turned out to be 0.06 fold.
For the molecule B9, the “KD fold (SG1 = 1)” value is 1.64 fold.
With B4, the “KD fold (SG1 = 1)” value was 0.04 fold.
On the same count and under the same terms, with B10 the figure was 1.24 fold; with B11, 0.58 fold; with B2, 0.12 fold.
As for B5, the “KD fold (SG1 = 1)” value turned out to be 0.19 fold.
As to B7, the “KD fold (SG1 = 1)” value was found to be 0.33 fold.

The next test concerns the target T6, human FcγRIIaH extracellular domain …. Description: SPR; KD of SG1 / KD of variant.
Take B8: the “KD fold (SG1 = 1)” value was found to be 5.3 fold.
Still for that read-out and setting: the same measure for B9: 2.8 fold.
As for B11, the “KD fold (SG1 = 1)” value stood at 8.5 fold.
In the case of B2, the “KD fold (SG1 = 1)” value was determined as 6.3 fold.

The target of a further test is T7, human FcγRIIaR extracellular domain …. Description: SPR; KD of SG1 / KD of variant.
As to B6, the “KD fold (SG1 = 1)” value worked out at 13.1 fold.
The same measure, in the same setting: with B4 the figure was 6.9 fold.
Same read-out and setting: with B2 the figure was 2 fold.
Still for that read-out and setting: with B7 the figure was 3 fold.

Another test addresses T8, human FcγRIIb extracellular domain with …. Description: SPR; KD of SG1 / KD of variant.
For B6, the “KD fold (SG1 = 1)” value is 6.8 fold.
Same read-out and setting: the same measure for B10: 3.8 fold; for B2: 1.2 fold.
Regarding B7, the “KD fold (SG1 = 1)” value was found to be 1.8 fold.

In another test the target is T10, human FcγRIIIaV extracellular domain with C-terminal His-tag (human, UniProt P08637 17-208).
T10 construct: also called human FcgRIIIaV; FcgRIIIaV
Description: SPR; KD of SG1 / KD of variant.
T10 sequence (P08637 17-208 F176V): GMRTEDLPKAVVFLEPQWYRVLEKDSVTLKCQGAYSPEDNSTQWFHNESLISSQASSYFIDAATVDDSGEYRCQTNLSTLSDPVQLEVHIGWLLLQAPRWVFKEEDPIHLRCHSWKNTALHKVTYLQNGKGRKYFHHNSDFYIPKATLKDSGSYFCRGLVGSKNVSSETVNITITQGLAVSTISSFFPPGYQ
Take B6: the “KD fold (SG1 = 1)” value was found to be 0.51 fold.
In the case of B3, the “KD fold (SG1 = 1)” value was 0.09 fold.
Still for that read-out and setting: the same measure for B1: 0.01 fold; for B4: 0.01 fold; for B11: 0.32 fold.
B2: the “KD fold (SG1 = 1)” value was determined as 0.05 fold.
On to B5, for which the “KD fold (SG1 = 1)” value came to 0.07 fold.

For another test, the target named is T9, cynomolgus monkey FcγRIIa1 …. Description: SPR (Biacore), antibody captured, FcgR as analyte. The protocol:
(§1) The kinetic analysis of interactions between these antibodies and FcγR was carried out using BIACORE® T200 or BIACORE® 4000 (GE Healthcare). HBS-EP+ (GE Healthcare) was used as the running buffer, and the measurement temperature was set to 25° C. […] After the measurement, the antibody captured on the chip was washed off by allowing reaction with 10 mM glycine-HCl, pH1.5 and 25 mM NaOH so that the chip was regenerated and used repeatedly. The sensorgrams obtained as measurement results were analyzed by the 1:1 Langmuir binding model using the BIACORE® Evaluation Software to calculate the binding rate constant ka (L/mol/s) and dissociation rate constant kd (1/s), and the dissociation constant KD (mol/L) was calculated from these values. […] Regarding such interactions, KD values were calculated using the following 1:1 binding model described in BIACORE® T100 Software Handbook BR1006-48 Edition AE.
B12 came in with a Kd of 1200 nM.
Still for that read-out and setting: with B13 the figure was 1500 nM.

The target of the next test is T11, human FcγRIIIaV extracellular domain with C-terminal His-tag (human, UniProt P08637 17-208).
T11 construct: also called human FcgRIIIaV
Description: SPR (Biacore), antibody captured, FcgR as analyte. The protocol:
as §1
T11 sequence (P08637 17-208 F176V): as above
Molecule B12 yielded a Kd of 2700 nM.
Same read-out and setting: with B14 the figure was 9300 nM; with B13, 5200 nM.

One may read the Kd as a measure of binding affinity in units of concentration.
